# In paper PMC3858840:
# Like-named read-outs stand apart in the source and are kept apart here.
# Assays:
# [1] = molecular target: moesin-FERM/TMR-CLS complex in 15% POPS/85% POPC liposome (human) (UniProt P26038); assay: other fluorescence titration
# [2] = molecular target: L-selectin cytoplasmic peptide cytoplasmic domain (Homo sapiens) (UniProt P14151); details: cited from earlier work
# [3] = molecular target: TMR-ARR18, ARR18 with the N-terminal residue changed to cysteine and labelled with tetramethylrhodamine-5-maleimide (human); assay: other fluorescence titration
# [4] = molecular target: TMR-CLS: TMR-labeled CLS_S329C (transmembrane and cytoplasmic domains of human L-selectin), in liposomes (human); assay: other fluorescence titration
# [5] = molecular target: TMR-CLS: TMR-labeled CLS_S329C (transmembrane and cytoplasmic domains of human L-selectin), in liposomes (human); assay: other fluorescence titration; remark: listed apart in the source
# [6] = molecular target: TMR-CLS: TMR-labeled CLS_S329C (transmembrane and cytoplasmic domains of human L-selectin), in liposomes (human); assay: other fluorescence titration; remark: listed apart in the source
# [7] = molecular target: TMR-CLS: TMR-labeled CLS_S329C (transmembrane and cytoplasmic domains of human L-selectin), in liposomes (human); assay: other fluorescence titration; remark: listed apart in the source
# [8] = molecular target: TMR-CLS: TMR-labeled CLS_S329C (transmembrane and cytoplasmic domains of human L-selectin), in liposomes (human); assay: other fluorescence titration; remark: listed apart in the source
# [9] = molecular target: TMR-CLS: TMR-labeled CLS_S329C (transmembrane and cytoplasmic domains of human L-selectin), in liposomes (human); assay: other fluorescence titration; remark: listed apart in the source
# [10] = molecular target: FERM domain of human moesin (residues 1–346) (human) (UniProt P26038); assay: other fluorescence titration
# Chain of FERM domain of human moesin (residues 1–346) (human) (P26038 1-346): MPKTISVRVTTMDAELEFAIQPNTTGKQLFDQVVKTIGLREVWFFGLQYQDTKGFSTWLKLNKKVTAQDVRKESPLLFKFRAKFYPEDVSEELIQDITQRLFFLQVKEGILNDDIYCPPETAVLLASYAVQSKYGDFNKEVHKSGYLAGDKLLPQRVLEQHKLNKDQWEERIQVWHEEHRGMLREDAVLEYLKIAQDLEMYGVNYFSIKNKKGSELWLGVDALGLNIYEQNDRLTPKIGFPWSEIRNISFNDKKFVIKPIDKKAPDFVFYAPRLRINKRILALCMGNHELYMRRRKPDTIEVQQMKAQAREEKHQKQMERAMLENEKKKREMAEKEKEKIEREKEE
# Chain of FERM domain of human moesin (residues 1–346) (P26038 1-346): as above
# Chain of moesin N-terminal fragment 1-296 (P26038 1-296): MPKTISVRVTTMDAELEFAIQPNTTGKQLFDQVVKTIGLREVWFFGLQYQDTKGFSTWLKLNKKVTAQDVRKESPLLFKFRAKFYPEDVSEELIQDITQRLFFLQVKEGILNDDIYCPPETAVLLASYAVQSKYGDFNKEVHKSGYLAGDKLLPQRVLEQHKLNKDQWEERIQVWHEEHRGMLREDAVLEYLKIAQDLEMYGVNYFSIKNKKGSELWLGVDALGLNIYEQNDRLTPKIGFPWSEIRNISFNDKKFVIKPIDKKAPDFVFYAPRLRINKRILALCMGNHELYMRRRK
substance,measurement,setting,value
"calmodulin (CaM), wild type (from UniProt P0DP23 1-149) (natural protein)",Kd,[1],800 nM
moesin N-terminal fragment 1-296 (from UniProt P26038),Kd,[2],40 nM
FERM domain of human moesin (residues 1–346) (from UniProt P26038 1-346) (domain or fragment),Kd,[3],214 nM
same,Kd,[4],302 nM
same,Kd,[5],67 nM
same,Kd,[6],74 nM
same,Kd,[7],133 nM
same,Kd,[8],70 nM
same,Kd,[9],96 nM
"ARR18, cytoplasmic domain peptide of human L-selectin (residues Ala317–Tyr334)",Kd,[10],196 nM
